Consider 1 molecule from PMC9991911, “IMM0306, a fusion protein of CD20 mAb with the CD47 binding domain of SIRPα, exerts excellent cancer killing efficacy by activating both macrophages and NK cells via blockade of CD47-SIRPα interaction and FcɣR engagement by simultaneously binding to CD47 and CD20 of B cells” (Leukemia, 2022).

In experiment [1] the target is CD47/CD20 double targets. Briefly: flow cytometry on cells; cultured cells (Jurkat; Raji-CD47KO; cells with both targets) stained with IMM0306, then secondary antibody anti-human IgG (Fc)-FITC; data analysed with GraphPad Prism 8.0.
The target of experiment [2] is CD47 on Jurkat cells (human (endogenous in Jurkat)) (UniProt Q08722). The description is as above.
CD47 on Jurkat cells (human (endogenous in Jurkat)), sequence (Q08722 19-323): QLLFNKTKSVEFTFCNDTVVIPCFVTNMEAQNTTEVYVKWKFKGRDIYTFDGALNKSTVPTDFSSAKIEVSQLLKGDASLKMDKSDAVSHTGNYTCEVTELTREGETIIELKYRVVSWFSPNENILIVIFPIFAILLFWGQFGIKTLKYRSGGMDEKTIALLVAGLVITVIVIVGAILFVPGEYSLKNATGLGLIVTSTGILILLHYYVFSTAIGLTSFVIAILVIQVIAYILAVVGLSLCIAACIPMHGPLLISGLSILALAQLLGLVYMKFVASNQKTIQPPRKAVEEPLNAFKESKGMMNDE
Experiment [3] has as its target T1, CD20 on Raji-CD47KO cells (Homo sapiens (endogenous, Raji-CD47KO), UniProt P11836).
T1 construct: CD20, endogenous on Raji-CD47KO cells; also called CD20 target on Raji-CD47KO cells; CD20-positive cells (Raji-CD47KO); source: endogenous, on Raji-CD47KO cells (Raji with human CD47 knockout, in-house)
The description is as above. Particulars: one partner purified.

For experiment [4], the target named is CD47 (Biacore assay) (UniProt Q08722). Briefly: SPR; Biacore assay; who was immobilised and the conditions not given. On the technique in general: In SPR one partner is held on a chip, and binding of the other changes the refractive index at the surface.
CD47 (Biacore assay), sequence (Q08722 19-323): as above
For experiment [5], the target named is CD20 (Biacore assay) (UniProt P11836). The experiment is described as above.
CD20 (Biacore assay), sequence (P11836 whole entry): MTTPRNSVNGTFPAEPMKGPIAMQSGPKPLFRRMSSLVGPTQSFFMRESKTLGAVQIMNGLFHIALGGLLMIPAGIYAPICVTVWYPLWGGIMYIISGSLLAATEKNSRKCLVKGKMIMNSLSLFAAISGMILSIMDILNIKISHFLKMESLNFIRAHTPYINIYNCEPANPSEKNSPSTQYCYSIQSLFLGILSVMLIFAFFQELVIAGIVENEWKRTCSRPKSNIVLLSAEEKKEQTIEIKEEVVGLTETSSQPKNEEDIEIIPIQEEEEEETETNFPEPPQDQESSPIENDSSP

T1 sequence (P11836 whole entry): as above

B1: IMM0306, a fusion protein of CD20 mAb with the CD47 binding domain of SIRPα (bispecific antibody, V domains shown)
VH: QVQLQQPGAELVKPGASVKMSCKASGYTFTSYNMHWVKQTPGRGLEWIGAIYPGNGDTSYNQKFKGKATLTADKSSSTAYMQLSSLTSEDSAVYYCARSTYYGGDWYFNVWGAGTTVTVSA
VL: QIVLSQSPAILSASPGEKVTMTCRASSSVSYIHWFQQKPGSSPKPWIYATSNLASGVPVRFSGSGSGTSYSLTISRVEAEDAATYYCQQWTSNPPTFGGGTKHELK
notes: IgG1; only the SIRPα D1 part can be built; also called CD47xCD20 mAb trap; source: in-house developed CHO-K1 cell expression system; copies: 2 +
The EC50 is the midpoint of the concentration-response curve. A lower EC50 goes with greater potency. As a reminder, the Kd is the constant that tells how readily two partners part at equilibrium. Lower therefore signals higher affinity. Turning to B1, the EC50 in experiment [1] came to 11.5 nM; in experiment [2], 16.8 nM; in experiment [3] it was 18.9 nM. The Kd was determined as 4.91 nM in experiment [4] and 2.45 nM in experiment [5].
